Patent publication US5625031

What was measured:
[1] = biological target: p34^cdc2 cell cycle regulatory kinase (Homo sapiens (Human)) (UniProt P06493)
[2] = biological target: p34^cdc2 cell cycle regulatory kinase (Homo sapiens (Human)) (UniProt P06493); experiment: Western blot densitometry of p34^cdc2 bound to p107 30mer-sepharose against immunoprecipitated p34^cdc2
[3] = biological target: p34^cdc2 cell cycle regulatory kinase (Homo sapiens (Human)) (UniProt P06493); experiment: IC50 column of Table 1 (ELISA based competition, competitor plate-bound p107 30mer)

histone H1 kinase specific activity of p34^cdc2 bound to p107 30mer-sepharose [1] [%]	amount of p34^cdc2 associated, relative to that within the immune complexes [2] [times]	Substance	IC50 [3] [µM]
1.4	50	p107 30 amino acid peptide (residues 692-721 of p107, encompassing alpha-helix II)	–
–	–	p107 NC5mer pentapeptide (CAFYI)	13
